Our source for the Kd values is US20070053902 (published 2007).

Test [1] addresses T1, human integrin alphavbeta3 (human, UniProt P06756).
T1 chain 1: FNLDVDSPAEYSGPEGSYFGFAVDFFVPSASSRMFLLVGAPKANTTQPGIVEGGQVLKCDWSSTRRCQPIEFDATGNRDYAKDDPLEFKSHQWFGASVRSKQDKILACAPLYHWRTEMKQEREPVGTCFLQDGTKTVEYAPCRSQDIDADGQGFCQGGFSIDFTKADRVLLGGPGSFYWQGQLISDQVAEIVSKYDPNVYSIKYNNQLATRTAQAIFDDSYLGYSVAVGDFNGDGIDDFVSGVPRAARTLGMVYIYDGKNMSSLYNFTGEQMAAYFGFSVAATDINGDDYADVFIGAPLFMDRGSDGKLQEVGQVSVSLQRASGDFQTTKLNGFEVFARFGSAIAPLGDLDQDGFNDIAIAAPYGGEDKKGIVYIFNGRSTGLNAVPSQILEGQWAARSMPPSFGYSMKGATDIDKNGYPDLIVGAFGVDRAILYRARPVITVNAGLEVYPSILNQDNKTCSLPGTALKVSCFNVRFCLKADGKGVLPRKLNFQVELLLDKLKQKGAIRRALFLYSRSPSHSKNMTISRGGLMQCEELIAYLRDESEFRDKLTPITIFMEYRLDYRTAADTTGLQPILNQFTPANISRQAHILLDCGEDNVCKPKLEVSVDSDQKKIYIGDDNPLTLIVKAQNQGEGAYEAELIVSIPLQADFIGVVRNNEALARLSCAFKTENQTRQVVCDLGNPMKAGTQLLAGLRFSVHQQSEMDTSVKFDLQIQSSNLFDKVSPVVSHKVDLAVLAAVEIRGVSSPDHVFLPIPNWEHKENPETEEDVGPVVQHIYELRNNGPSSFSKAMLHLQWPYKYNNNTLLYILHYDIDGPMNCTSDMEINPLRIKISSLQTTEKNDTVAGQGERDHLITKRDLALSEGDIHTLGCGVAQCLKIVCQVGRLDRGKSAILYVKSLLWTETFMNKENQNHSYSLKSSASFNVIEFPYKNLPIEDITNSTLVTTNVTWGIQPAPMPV
T1 chain 2: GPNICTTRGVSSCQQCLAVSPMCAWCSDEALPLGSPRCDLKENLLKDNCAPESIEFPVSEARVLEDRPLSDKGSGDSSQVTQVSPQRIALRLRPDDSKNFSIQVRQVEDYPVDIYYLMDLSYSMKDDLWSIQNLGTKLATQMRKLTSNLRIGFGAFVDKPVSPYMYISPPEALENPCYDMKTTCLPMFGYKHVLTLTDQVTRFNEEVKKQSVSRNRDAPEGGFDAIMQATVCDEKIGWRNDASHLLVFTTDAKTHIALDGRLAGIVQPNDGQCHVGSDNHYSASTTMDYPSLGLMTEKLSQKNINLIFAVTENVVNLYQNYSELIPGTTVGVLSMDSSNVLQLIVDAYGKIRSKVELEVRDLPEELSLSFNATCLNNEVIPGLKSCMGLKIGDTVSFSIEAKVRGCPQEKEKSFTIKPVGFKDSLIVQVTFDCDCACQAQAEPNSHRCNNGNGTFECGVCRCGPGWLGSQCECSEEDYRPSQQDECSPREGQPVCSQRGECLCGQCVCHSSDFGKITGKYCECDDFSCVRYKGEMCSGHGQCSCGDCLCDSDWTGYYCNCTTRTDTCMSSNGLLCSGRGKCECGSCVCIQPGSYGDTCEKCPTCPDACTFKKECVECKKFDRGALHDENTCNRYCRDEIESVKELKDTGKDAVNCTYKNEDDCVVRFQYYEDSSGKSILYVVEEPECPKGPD
Briefly: SPR.

Test [2] concerns the target T1, human integrin alphavbeta3. Description: SPR.

Read-outs that look alike come from different tables or passages of the source.

B1: HZD12-IgG4 (antibody, V domains shown)
VH: QVQLVQSGAEVKKPGASVKVSCKASGYAFTSYNMYWVRQAPGQGLEWIGYIDPYNGDTFYNQKFKGKATLTVDKSTSTAYMELSSLRSEDTAVYYCARQNYGSFAYWGQGTLVTVSS
VL: DIVLTQSPGTLSLSPGERATLSCRASQSISNHLHWYQQKPGQAPRLLIKYASQSISGIPSRFSGSGSGTDFTLTISRLEPEDFAVYYCQQSNSWPFTFGQGTKVEIK
B1 displayed a Kd in test [1] of 1.1 nM.

B2: HZD12-IgG1 (antibody, V domains shown)
VH: B1 VH
VL: B1 VL
Consider B2, for which, in test [1], the Kd was found to be 1 nM.

B3: murine D12 (antibody, V domains shown)
VH: EIQLQQSGPEVVKPGASVKVSCKASGYAFTSYNMYWVKQSHGKSLEWIGYIDPYNGDTFYNQKFKGKATLTVDKSSSTAYMHLNSLTSEDSAVFYCARQNYGSFAYWGQGTLVTVSA
VL: DIVLTQSPATLSVTPGDSVSLSCRASQSISNHLHWYQQRSHESPRLLIKYASQSISGIPSRFRGSGSGTDFTLNINILETEDFGMYFCQQSNSWPFTFGSGTNLEIKR
With B3, the Kd in test [2] was found to be 0.53 nM; in test [1] it was 1.3 nM.
